T1: human BCMA on the cell membrane surface (H929 and RPMI8226 cells) (human, UniProt Q02223 1-184)
T1 construct: whole, on cells; also called BCMA antigen on the cell membrane surface; BCMA-expressing cell line H929
T1 sequence (looked up): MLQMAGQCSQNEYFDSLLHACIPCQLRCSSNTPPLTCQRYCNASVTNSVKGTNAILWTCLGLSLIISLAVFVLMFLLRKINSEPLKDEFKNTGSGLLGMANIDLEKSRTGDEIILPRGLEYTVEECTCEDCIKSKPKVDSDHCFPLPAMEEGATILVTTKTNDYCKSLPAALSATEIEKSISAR

T2: BCMA-Fc fusion protein (Acrobiosystems, catalog number BC7-H5254) (human, UniProt Q02223 1-54, biotin cross-linked, 3 to 5 biotin molecules per molecule, where the biotinylated antigen is used (ELISA of Table 3); sites not stated)
T2 construct: Bought protein; also called BCMA antigen; BCMA-Fc antigen; not shown: human Fc of the bought fusion protein
T2 sequence (looked up): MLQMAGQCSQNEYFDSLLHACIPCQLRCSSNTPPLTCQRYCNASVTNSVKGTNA


Experiments:
[1] = target: T1, human BCMA on the cell membrane surface …; test: flow cytometry on RPMI8226 cells (as the table labels it; the text gives this value to J6)
[2] = target: T1, human BCMA on the cell membrane surface …; test: flow cytometry on RPMI8226 cells, scFv-Fc
[3] = target: T1, human BCMA on the cell membrane surface …; test: flow cytometry on RPMI8226 cells, EC50 ratio (as the table labels it)
[4] = target: T1, human BCMA on the cell membrane surface …; test: flow cytometry on RPMI8226 cells (as the text tells it; the table gives this value to J6); flow cytometry on RPMI8226 cells; value as the text of paragraph 107 assigns it
[5] = target: T1, human BCMA on the cell membrane surface …; test: flow cytometry on H929 cells, scFv-Fc
[6] = target: T2, BCMA-Fc fusion protein (Acrobiosystems, …); test: affinity worked out from the ELISA EC50 fold against J6 (taken as about 0.2 nM)
Protocol: (§1) After antibodies with different concentrations were coated on enzyme-linked plates, the biotinylated BCMA antigen, streptavidin-conjugated horseradish peroxidase (HRP) and chromogenic substrate were added step by step. The obtained signal-antibody gradient curve is shown in Graph A of FIG. 4, and the relative affinity change fold is shown in Table 3.

[7] = target: T1, human BCMA on the cell membrane surface …; test: flow cytometry on RPMI8226 cells
From the text: (§2) In order to understand the apparent affinity of these antibodies to BCMA on the cell surface, the binding of B10 parental antibody and the finally obtained 4 mutants to BCMA-expressing cell line RPMI8226 were compared with J6 by flow cytometry (see Graph B of FIG. 4, Table 4).

[8] = target: T1, human BCMA on the cell membrane surface …; test: flow cytometry on RPMI8226 cells, EC50 ratio
From the text: as §2

[9] = target: T2, BCMA-Fc fusion protein (Acrobiosystems, …); test: ELISA EC50 relative to J6
Protocol: as §1

[10] = target: T2, BCMA-Fc fusion protein (Acrobiosystems, …); test: ELISA, BCMA-Fc coated at 0.25 µg/ml, Fab from E. coli, HRP anti-human Fab
Protocol: The conditions of the enzyme-linked reaction were optimized through preliminary experiments, to allow the A450 absorption value of the binding of B10 parental antibody Fab to the antigen BCMA-Fc 3 times higher than the background signal. The BCMA-Fc antigen was coated at 0.25 μg/ml on the enzyme-linked plate one day in advance, and the secreted and expressed mutant Fab was added to the wells on the following day, with HRP-conjugated anti-human Fab as the second antibody, the substrate was colored, and A450 was read, to obtain clones corresponding to the wells with signals 1.5 times higher than the maximum value of the parental wells, and these clones were called hits. All hits of the light and heavy chain variable regions were collected, inducted to express and tested by ELISA to verify their affinity higher than the parental antibody. Sequence analysis of mutant regions of the plasmid of the re-positive clone was performed, to obtain the mutation information of CDR amino acids. The process was called primary screening. All mutation information in the CDR region that was beneficial to the improvement of affinity was obtained: mutation sites that improved affinity in the heavy chain variable region CDR are shown in Table 1, and those in the light chain variable region CDR are shown in Table 2.

Row | EC50 [1] | percentage of binding [2] | Fold increase relative to J6 [3] | EC50 [4] | percentage of binding [5] | Kd [6] | EC50 [7] | Fold increase relative to J6 [8] | Fold of J6 [9] | binding result [10] | Binder
1 | 1.57 µg/mL | 5.54% | 0.57 fold | 2.74 µg/mL | 75.3% |  |  |  |  |  | B10 scFv-Fc protein (B10 parental antibody) (Fc fusion, scFv gene fused with the Fc gene of human IgG4 (plasmid pFH-B10); also called clone B10; scFv-Fc protein of B10; not shown: Fc of human IgG4 from vector pFH) scFv: QVQLQQSGAEVKKPGSSVKVSCKASGGTFSSYAISWVRQAPGQGLEWMGGIIPIFGTANYAQKFQGRVTITADESTSTAYMELSSLRSEDTAVYYCARGWYFDLWGRGTLVTVSSASTGGSSRSSSSGGGGSGGGGLPVLTQPPSASGTPGQRVTISCSGSSSNIGGYSVNWYQQFPGTAPKLLIYRNNQRPSGVPDRFSGSKSGASASLAISGLQSEDEADYYCAAWDDSLIGYVFGTGTQLTVL
2 |  | 57.5% |  |  | 97.9% | 310 pM | 0.0343 µg/mL | 79.9 fold | 1.55 fold |  | B10.4 scFv-Fc (Fc fusion, also called mutant B10.4; not shown: Fc (scFv-Fc)) scFv: QVQLQQSGAEVKKPGSSVKVSCKASGGTFSKSAIMWVRQAPGQGLEWMGGVIPIFGTANYAQKFQGRVTITADESTSTAYMELSSLRSEDTAVYYCARGWYLDLWGRGTLVTVSSASTGGSSRSSSSGGGGSGGGGLPVLTQPPSASGTPGQRVTISCSGSSNNIGGYSVNWYQQFPGTAPKLLIYRNNQRPSGVPDRFSGSKSGASFSLAISGLQFEDEADYYCARWDDSVIGWVLGTGTQLTVL
3 |  | 42.9% |  |  | 91.6% | 290 pM | 0.0451 µg/mL | 60.7 fold | 1.43 fold |  | B10.9 scFv-Fc (Fc fusion, also called mutant B10.9; not shown: Fc (scFv-Fc)) scFv: QVQLQQSGAEVKKPGSSVKVSCKASGGTFSKSAIQWVRQAPGQGLEWMGGVIPIFGTANYAQKFQGRVTITADESTSTAYMELSSLRSEDTAVYYCARGWYLDLWGRGTLVTVSSASTGGSSRSSSSGGGGSGGGGLPVLTQPPSASGTPGQRVTISCSGSSNNIGGYSVNWYQQFPGTAPKLLIYRNNQRPSGVPDRFSGSKSGASASLAISGLQSEDEADYYCAAWDDSEIGWLFGTGTQLTVL
4 |  | 54.9% |  |  | 98% | 260 pM | 0.0282 µg/mL | 97.1 fold | 1.29 fold |  | B10.3 scFv-Fc (Fc fusion, also called mutant B10.3; not shown: Fc (scFv-Fc)) scFv: QVQLQQSGAEVKKPGSSVKVSCKASGGTFSKSAIQWVRQAPGQGLEWMGGVIPIFGTANYAQKFQGRVTITADESTSTAYMELSSLRSEDTAVYYCARGWYLDLWGRGTLVTVSSASTGGSSRSSSSGGGGSGGGGLPVLTQPPSASGTPGQRVTISCSGSSNNIGGYSVNWYQQFPGTAPKLLIYRNNQRPSGVPDRFSGSKSGASASLAISGLQSEDEADYYCAAWDDSVIGWLFGTGTQLTVL
5 |  | 58.2% |  |  | 97.2% | 270 pM | 0.0406 µg/mL | 67.5 fold | 1.35 fold |  | B10.5 scFv-Fc (Fc fusion, also called mutant B10.5; not shown: Fc (scFv-Fc)) scFv: QVQLQQSGAEVKKPGSSVKVSCKASGGTFSKSAIHWVRQAPGQGLEWMGGVIPIFGTANYAQKFQGRVTITADESTSTAYMELSSLRSEDTAVYYCARGWYLDLWGRGTLVTVSSASTGGSSRSSSSGGGGSGGGGLPVLTQPPSASGTPGQRVTISCSGSSSNIGGYSVNWYQQFPGTAPKLLIYRNNQRPSGVPDRFSGSKSGASASLAISGLQSEDVADYYCAAWDDSLIGYVFGTGTQLTVL
6 |  |  |  |  |  |  |  |  |  | binds | B10 parental antibody Fab (Fab, V domains shown, Variable regions cloned into vector pUFL and secreted as Fab by E. coli BL21(DE3); also called Fab form of B10) VH: QVQLQQSGAEVKKPGSSVKVSCKASGGTFSSYAISWVRQAPGQGLEWMGGIIPIFGTANYAQKFQGRVTITADESTSTAYMELSSLRSEDTAVYYCARGWYFDLWGRGTLVTVSS VL: LPVLTQPPSASGTPGQRVTISCSGSSSNIGGYSVNWYQQFPGTAPKLLIYRNNQRPSGVPDRFSGSKSGASASLAISGLQSEDEADYYCAAWDDSLIGYVFGTGTQLTVL

— patent publication US20250011447A1 (EXCYTE BIOPHARMA, published 2025)
